Experimental data published in patent CN104862283A (UNIV JINAN, dated 2015).

T1: 人肌红蛋白(Human Myoglobin) (human, UniProt P02144 2-154)
T1 construct: mature; Native protein, bought; also called 人肌红蛋白标准抗原; ABCam ab77876
T1 sequence (looked up): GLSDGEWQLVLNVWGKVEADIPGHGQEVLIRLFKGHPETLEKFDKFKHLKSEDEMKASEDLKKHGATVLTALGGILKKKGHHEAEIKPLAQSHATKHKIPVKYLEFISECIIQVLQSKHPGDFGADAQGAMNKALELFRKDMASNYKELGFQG


Target: T1, 人肌红蛋白(Human Myoglobin)
Test: indirect ELISA, human myoglobin coated at 300 ng/ml, purified antibody in two-fold dilutions from 1:10 000

| Binder | 效价 (titer, antibody dilution at OD450 about 1.0) (dilution fold) | 效价 (titer, antibody dilution at OD450 about 1.0) |
| --- | --- | --- |
| 鼠源抗人肌红蛋白单克隆抗体3M4 (antibody, V domains shown) VH: VKLQESGGGLVQPGGSMKLSCVASGFNFSSYWMSWVRQSPEKGLEWVAEIRLKSDNYATHYAESVKGKFTISRDDSKSSLYLQMNNLRTEDTGIYFCADHGLTGHWGQGTTVTVSS VL: LTQSPAIMSASPGEKVTLTCSASSSVSSSYLYWYQQKPGSSPKIWIYSTSNLAFGVPDRFSGSGSGTSYSLTISTMEAEDAASYFCHQWSSYPFTFGAGTKLE | > 1e+06 | – |
| 鼠源抗人肌红蛋白单克隆抗体5M7 (antibody) chain 1: VQLQESGAELARPGASVKLSCKASGYTFTIYWMQWVKQRPGQGLEWIGSIYPGDGDTRYNQKFKGKATFTADKSSSTAYMQLISLASEDSAVYYCATGLYYGYDEGHWYFDVWGQGTTV chain 2: DIVMSQSPASLAVSLGQRATISYRASKSVSTSGYSYMHWNQQKPGQPPRLLIYLVSNLESGVPARFSGSGSGTDFTLNIHPVEEEDAATYYCQHIR | – | ≥ 1e+06 dilution fold |
